Assay results published in US20250152746A1, “BASE EDITING OF ANGPTL3 AND METHODS OF USING SAME FOR TREATMENT OF DISEASE” (Verve Therapeutics, Inc., priority 2020, published 2025).
In the oligonucleotide strings, read from the 5' end, every base follows the letter of its sugar. An asterisk marks phosphorothioate; unmarked linkages are phosphodiester. Other units and linkages are bracketed, terminal groups are in braces. A string of capitals states the bases alone. m = 2'-O-methyl; r = 2'-OH (RNA)

B1: GA191: PCSK9 gRNA; protospacer GCCCCATGTCGACTACATCG (SEQ ID NO: 185) (nucleic acid)
guide: mG*mC*mC*rCrCrArUrGrUrCrGrArCrUrArCrArUrCrGrGrUrUrUrUrArGrArGrCrUrArGrArArArUrArGrCrArArGrUrUrArArArArUrArArGrGrCrUrArGrUrCrCrGrUrUrArUrCrArArCrUrUrGrArArArArArGrUrGrGrCrArCrCrGrArGrUrCrGrGrUrGrCrU*mU*mU*mU
B2: GA188: PCSK9 gRNA; protospacer TATTCATCCGCCCGGTACCG (SEQ ID NO: 182) (nucleic acid)
guide: mU*mA*mU*rUrCrArUrCrCrGrCrCrCrGrGrUrArCrCrGrGrUrUrUrUrArGrArGrCrUrArGrArArArUrArGrCrArArGrUrUrArArArArUrArArGrGrCrUrArGrUrCrCrGrUrUrArUrCrArArCrUrUrGrArArArArArGrUrGrGrCrArCrCrGrArGrUrCrGrGrUrGrCrU*mU*mU*mU
B3: GA187: PCSK9 gRNA; protospacer CTCCTCGATGTAGTCGACAT (SEQ ID NO: 181) (nucleic acid)
guide: mC*mU*mC*rCrUrCrGrArUrGrUrArGrUrCrGrArCrArUrGrUrUrUrUrArGrArGrCrUrArGrArArArUrArGrCrArArGrUrUrArArArArUrArArGrGrCrUrArGrUrCrCrGrUrUrArUrCrArArCrUrUrGrArArArArArGrUrGrGrCrArCrCrGrArGrUrCrGrGrUrGrCrU*mU*mU*mU
B4: GA189: PCSK9 gRNA; protospacer TCCTCGATGTAGTCGACATG (SEQ ID NO: 183) (nucleic acid)
guide: mU*mC*mC*rUrCrGrArUrGrUrArGrUrCrGrArCrArUrGrGrUrUrUrUrArGrArGrCrUrArGrArArArUrArGrCrArArGrUrUrArArArArUrArArGrGrCrUrArGrUrCrCrGrUrUrArUrCrArArCrUrUrGrArArArArArGrUrGrGrCrArCrCrGrArGrUrCrGrGrUrGrCrU*mU*mU*mU
B5: GA001: PCSK9 gRNA, GA156 spacer with modifications to the tracrRNA sequence (nucleic acid)
guide: rG*rG*rU*rGrCrUrArGrCrCrUrUrGrCrGrUrUrCrCrGrGrUrUrUrUrArGrAmGmCmUmAmGmAmAmAmUmAmGmCrArArGrUrUrArArArArUrArArGrGrCrUrArGrUrCrCrGrUrUrArUrCrAmAmCmUmUmGmAmAmAmAmAmGmUmGmGmCmAmCmCmGmAmGmUmCmGmGmUmGmCmU*mU*mU*mU
B6: GA005: PCSK9 gRNA, GA156 spacer with modifications to the tracrRNA sequence (nucleic acid)
guide: GGTGCTAGCCTTGCGTTCCGGTTTTAGAGCTAGAAATAGCAAGTTAAAATAAGGCTAGTCCGTTATCAACTTGAAAAAGTGGCACCGAGTCGGTGCTTTTT
modifications: chemistry not given here
B7: GA002: PCSK9 gRNA, GA156 spacer with modifications to the tracrRNA sequence (nucleic acid)
guide: GGTGCTAGCCTTGCGTTCCGGTTTTAGAGCTAGAAATAGCAAGTTAAAATAAGGCTAGTCCGTTATCAACTTGAAAAAGTGGCACCGAGTCGGTGCTTTT
modifications: listed as RNA; modified_base 1: mod_base = OTHER; note = 2'-O-Methyl-guanosine phosphorothioate; modified_base 2: mod_base = OTHER; modified_base 3: mod_base = OTHER; note = 2'-O-Methyl-uridine phosphorothioate
B8: GA009: minimally modified control gRNA, PCSK9 (nucleic acid)
guide: mG*mG*mU*rGrCrUrArGrCrCrUrUrGrCrGrUrUrCrCrGrGrUrUrUrUrArGrArGrCrUrArGrArArArUrArGrCrArArGrUrUrArArArArUrArArGrGrCrUrArGrUrCrCrGrUrUrArUrCrArArCrUrUrGrArArArArArGrUrGrGrCrArCrCrGrArGrUrCrGrGrUrGrCrU*mU*mU*mU
B9: GA004: PCSK9 gRNA, GA156 spacer with modifications to the tracrRNA sequence (nucleic acid)
guide: mG*mG*mU*rGrCrUrArGrCrCrUrUrGrCrGrUrUrCrCrGmGrUrUrUrUrArGmAmGmCmUmAmGmAmAmAmUmAmGmCmAmArGrUrUmArAmArAmUrAmAmGmGmCmUmArGrUmCmCrGrUrUrAmUmCrArAmCmUmUmGmAmAmAmAmAmGmUmGrGmCmAmCmCmGmAmGmUmCmGmGmUmGmCmUmUmUmUmU
B10: GA006: PCSK9 gRNA, GA156 spacer with modifications to the tracrRNA sequence (nucleic acid)
guide: rG*rG*rU*rGrCrUrArGrCrCrUrUrGrCrGrUrUrCrCrGmGrUrUrUrUrArGmAmGmCmUmAmGmAmAmAmUmAmGmCmAmArGrUrUmArAmArAmUrAmAmGmGmCmUmArGrUmCmCrGrUrUrAmUmCrArAmCmUmUmGmAmAmAmAmAmGmUmGrGmCmAmCmCmGmAmGmUmCmGmGmUmGmCmU*mU*mU*mU
B11: GA003: PCSK9 gRNA, GA156 spacer with modifications to the tracrRNA sequence (nucleic acid)
guide: mG*mG*mU*rGrCrUrArGrCrCrUrUrGrCrGrUrUrCrCrGrGrUrUrUrU*rArGrAmGmCmUmAmGmAmAmAmUmAmGmCrArArGrUrU*rArArArArU*rArArGrGrCrU*rArGrUrCrCrGrUrU*rArUrC*rAmAmCmUmUmGmAmAmAmAmAmGmUmGmGmCmAmCmCmGmAmGmUmCmGmGmUmGmCmU*mU*mU*mU

These molecules were tested on PCSK9 gene (assay: PCSK9 gRNA/SpCas9 editing in primary human hepatocytes (Tables 2, 4)). Conditions: 100 ng/RNA/mL; SpCas9 mRNA MS002 1:1 by weight.
Format: cell-based
Procedure: (§1) In set of experiments, PCSK9 gRNAs were co-transfected with an equivalent amount (1:1 ratio by weight) of in vitro transcribed commercially available SpCas9 mRNA MS002 purchased from TriLink Biotechnologies into primary human hepatocytes at 2500, 500, or 100 ng/RNA/mL and processed as described in detailed methods. Extracted genomic DNA was analyzed for gene editing at the target site with next-generation sequencing of PCR amplicons generated around the target sites. Samples were prepared using the Nextera XT DNA library preparation kit (Illumina) according to the manufacturer's protocol. Briefly, two rounds of PCR were performed first to amplify the region of interest and second to add DNA sequences required for next generation sequencing and sample identification to the initial product. The final amplicon was sequenced on the Illumina MiSeq instrument according to the manufacturer's protocol. A wide range of editing activities (Table 2) were observed. In a second set of experiments, ANGPTL3 gRNAs were co-transfected with an equivalent amount of in vitro transcribed SpCas9 mRNA (1:1 ratio by weight) into primary human hepatocytes and processed and analyzed similarly (Table 3).
PCSK9 gRNAs were co-transfected with an equivalent amount of in vitro transcribed SpCas9 mRNA MS002 (1:1 ratio by weight) into primary human hepatocytes and processed as described in detailed methods. A wide range of editing activities were observed (Table 4; ND=Not determined). The guides with the highest editing activity at five days post transfection were GA001, GA002, GA007, and GA008.
Human primary hepatocytes were transfected at 2500, 1250, 500, and 250 ng/test article/mL with SpCas9 mRNA MS002 and a gRNA targeting PCSK9 with modifications to the tracr. Genomic DNA was processed, sequenced, and analyzed as described in the detailed methods section. GA156 was transfected to serve as a positive control.
Plating, culturing, and transfection of primary hepatocytes. Primary human liver hepatocytes (PHH) and primary cynomolgus liver hepatocytes (PCH) from BioIVT were cultured per the manufacturer's protocol. Briefly, primary human hepatocytes and primary cyno hepatocytes were obtained as frozen aliquots from BioIVT. Four lots of primary human hepatocytes, each derived from a de-identified individual donor, were used for the experiments: STL (main donor) was used for all experiments, including screening experiments and off-target experiments; HLY, JLP, and TLY were used for off-target experiments. The HFG lot of primary cyno hepatocytes were used for experiments. Following the manufacturer's instructions, cells were thawed and rinsed prior to plating in 24-well plates that had been coated with bovine collagen overnight, with a density of approximate 350,000 cells/well in INVITROGRO hepatocyte medium supplemented with TORPEDO antibiotic mix (BioIVT). The cells were thawed and resuspended in hepatocyte thawing medium followed by centrifugation at 100 g for 10 min at 4° C. The supernatant was discarded, and the pelleted cells resuspended in hepatocyte plating medium. Each vial contains approximately 5 million cells that were used for plating one 24-well plate. Plated cells were allowed to settle and adhere for 4-6 h in a tissue culture incubator at 37° C. under 5% CO2 atmosphere. After incubation, cells were checked for monolayer formation. The incubating media were then replaced with fresh hepatocyte maintenance media (complete INVITROGRO medium obtained from BioIVT, the cell line provider). The cells thus became ready for transfection. Each of the gRNAs were co-transfected with an equivalent amount of in vitro transcribed ABE8.8 mRNA (1:1 ratio by molecular weight) into primary human hepatocytes via MessengerMax reagent (Lipofectamine), using various dilutions to assess for editing activity at different concentrations of test article. MessengerMAX from Thermo Fisher is used for transfection. […]

Row | Molecule | Human Primary Hepatocyte Editing % 100 [%]
1 | B1 | 3
2 | B2 | 4.21
3 | B3 | 2.44
4 | B4 | 1.76

Same assay, conditions: 500 ng/RNA/mL; SpCas9 mRNA MS002 1:1 by weight

Row | Molecule | Human Primary Hepatocyte Editing % 500 [%]
5 | B1 | 12.2
6 | B2 | 15.38
7 | B3 | 6.47
8 | B4 | 8.94

Same assay, conditions: 2500 ng/RNA/mL; SpCas9 mRNA MS002 1:1 by weight

Row | Molecule | Human Primary Hepatocyte Editing % 2500 [%]
9 | B1 | 34.6
10 | B2 | 41.02
11 | B4 | 31.23

Same assay, conditions: modified gRNA, SpCas9 mRNA MS002 1:1 by weight; day 3 post transfection

Row | Molecule | % Editing, day 3 [%]
12 | B5 | 16
13 | B6 | 1
14 | B7 | 28
15 | B8 | 4
16 | B9 | 7

Same assay, conditions: modified gRNA, SpCas9 mRNA MS002 1:1 by weight; day 5 post transfection

Row | Molecule | % Editing, day 5 [%]
17 | B5 | 27
18 | B10 | 12
19 | B6 | 15
20 | B7 | 23
21 | B8 | 19
22 | B9 | 12
23 | B11 | 7

What follows are molecules tested on PCSK9 gene (assay: PCSK9 gRNA/SpCas9 editing in primary cynomolgus hepatocytes (Tables 2, 22)). Conditions: 100 ng/RNA/mL; SpCas9 mRNA MS002 1:1 by weight.
Format: cell-based, cynomolgus monkey
Procedure: as §1
[…] Genomic DNA was processed, sequenced, and analyzed as described in the detailed methods section. GA266 was transfected independently twice to serve as two positive controls.
Plating, culturing, and transfection of primary hepatocytes. Primary human liver hepatocytes (PHH) and primary cynomolgus liver hepatocytes (PCH) from BioIVT were cultured per the manufacturer's protocol. Briefly, primary human hepatocytes and primary cyno hepatocytes were obtained as frozen aliquots from BioIVT. Four lots of primary human hepatocytes, each derived from a de-identified individual donor, were used for the experiments: STL (main donor) was used for all experiments, including screening experiments and off-target experiments; HLY, JLP, and TLY were used for off-target experiments. The HFG lot of primary cyno hepatocytes were used for experiments. Following the manufacturer's instructions, cells were thawed and rinsed prior to plating in 24-well plates that had been coated with bovine collagen overnight, with a density of approximate 350,000 cells/well in INVITROGRO hepatocyte medium supplemented with TORPEDO antibiotic mix (BioIVT). The cells were thawed and resuspended in hepatocyte thawing medium followed by centrifugation at 100 g for 10 min at 4° C. The supernatant was discarded, and the pelleted cells resuspended in hepatocyte plating medium. Each vial contains approximately 5 million cells that were used for plating one 24-well plate. Plated cells were allowed to settle and adhere for 4-6 h in a tissue culture incubator at 37° C. under 5% CO2 atmosphere. After incubation, cells were checked for monolayer formation. The incubating media were then replaced with fresh hepatocyte maintenance media (complete INVITROGRO medium obtained from BioIVT, the cell line provider). The cells thus became ready for transfection. Each of the gRNAs were co-transfected with an equivalent amount of in vitro transcribed ABE8.8 mRNA (1:1 ratio by molecular weight) into primary human hepatocytes via MessengerMax reagent (Lipofectamine), using various dilutions to assess for editing activity at different concentrations of test article. MessengerMAX from Thermo Fisher is used for transfection. Solution A: desired amount of guide RNA is mixed with 1:1 wt ratio of mRNA in OptiMEM. Solution B: MessengerMAX in OptiMEM. After mixing solutions A and B, the mixture was incubated at room temperature for 20 min. 60 μL of the incubated solution was added dropwise to each cell wells. For protospacer sequences that were a perfect match to the corresponding cynomolgous monkey PCSK9 or ANGPTL3 gene sequence, each gRNA was also co-transfected with an equivalent amount of ABE8.8 mRNA (1:1 ratio by molecular weight) into primary cynomolgous hepatocytes, and followed the same transfection protocol. […]

Row | Molecule | Cyno Primary Hepatocyte Editing % 100 [%]
24 | B1 | 5.46
25 | B2 | 0.01
26 | B3 | 3.77
27 | B4 | 3.30

Same assay, conditions: 500 ng/RNA/mL; SpCas9 mRNA MS002 1:1 by weight

Row | Molecule | Cyno Primary Hepatocyte Editing % 500 [%]
28 | B1 | 26.79
29 | B2 | 0.01
30 | B3 | 12.30
31 | B4 | 15.58

Same assay, conditions: 2500 ng/RNA/mL; SpCas9 mRNA MS002 1:1 by weight

Row | Molecule | Cyno Primary Hepatocyte Editing % 2500 [%]
32 | B1 | 51.79
33 | B2 | 0.06
34 | B3 | 29.24
35 | B4 | 41.70
